Experimental findings from patent US20200352918A1, “COMPOUNDS AND METHODS FOR TREATING OR PREVENTING FIBROSIS” (priority 2019, published 2020) are described below.

Holding throughout (format): cell-based, human
Experiment [1] concerns iFA phenotype of mesenchymal-like cells on 13 kPa hydrogels. Kind of experiment: iFA resolution screen (reversal of fibrosis) in the iFA model. The following applies: phenotype formed over 10 days, then compounds added. The method, then:
Signal-to-background (S/B) ratio, standard variation and variation coefficients were calculated as the signal of DMSO treated wells divided by the signal of the hit compound (AA5) treated wells. Z′ values were used to measure assay quality which was calculated by the formula of Z′=1−3(SDTotal+SDBackground)/(MeanTotal−MeanBackground)(Inglese et al., 2006) where SDTotal and MeanTotal are the standard deviation and mean of signal for DMSO treated wells, and SDBackground and MeanBackground are the standard deviation and mean of signal for AA5 treated wells. Data normalization and curve fitting were performed as previously reported (Kariv et al., 1999, J Biomol Screen 4, 27-32.). Z′ values were obtained for the number of cellular aggregates and also calculated a phenotypic cell index as the product of cell number x area/Log(number of iFA aggregates+5). Secondary screening using α-SMA and collagen deposition was employed to further ensure efficacy and resolution of the iFA phenotype of the compounds. For the resolution screen, cells were seeded in a 96-well plate as mentioned above and compounds were added at day 13 to analyze their capacity to resolve the iFA phenotype using the same readouts as above. Dose response experiments were carried out as in the secondary screen but with at least 12 steps of a 1:1 dilution resulting in final compound concentrations from 500 μM to high nanomolar ranges.
The primary assay involved plating together the iPSCs and Table 1 compounds sourced from the library on day 1 on the hydrogel and examining the phenotype on day 7 of the culture as described herein. The secondary screen repeated the assay using compound sourced commercially or from additional library materials. The dose response refers to a 20 point dose course that ranges from picomolar to millimolar concentrations. […] As described herein, the cellular phenotype parameters evaluated included size, fluorescence intensity of the iFA phenotype, the shape factor of the cells/aggregates, and the cells' viability in the presence of viability dyes (Calcein AM).

The test system is the same in experiment [2]. Kind of experiment: iFA-prevention phenotypic high-content drug screen (iFA model). As to conditions: for Dose response: 20 point dose course, picomolar to millimolar; for Efficacy in secondary screen: assay repeated with compound sourced commercially or from additional library materials; for Efficacy in primary screen: library compound plated with cells on day 1 on hydrogel, phenotype on day 7, 10 μM; for Prevention/rescue of the iFA phenotype: 3.75 μgm/ml IFNγ (FIG. 25C). The method, then:
Mesenchymal-like cells were cultured on 13 kPa functionalized polyacrylamide gels that were prepared as follows. 187.5 μl of 40% acrylamide, 60 μl of 2% bis-acrylamide and 8.55 μl of sodium bisulfate in a final volume of 990 μl of water was incubated for 20 min at room temperature to degas the mixture. To this mixture, 0.10% ammonium persulfate and 0.15% TEMED were added, mixed and 100 μl of the solution was added onto a 0.4% 3-(Trimethoxysily) propyl methacrylate pH 3.5 treated coverslip. A 2% dimethyl dichlorosilane in chloroform treated round glass coverslip was then inverted on the acrylamide solution and allowed to polymerize for 15 min between the two surfaces. The top coverslip was gently removed, and the bottom coverslips with the hydrogel were transferred to appropriate multi-well low adherent tissue culture plate containing coupling buffer (0.1 M sodium phosphate dibasic, 0.1 M sodium phosphate monobasic) pH 8. To functionalize the hydrogel, 1 part of 0.1 M p-benzoquinone in dioxane was added to the hydrogels containing 4 parts of coupling buffer and incubated at 37° C. for 30 min. The gel was then successively washed with 20% dioxane in water, water, 0.1 M sodium acetate buffer at pH 4.0 containing 1.0 M sodium chloride, 0.1 M sodium bicarbonate solution at pH 8.5 containing 1.0 M sodium chloride, and finally with coupling buffer at pH 7.5. The hydrogels were then coated with 0.1% gelatin for 2 hrs prior to seeding the cells. Cells were seeded at a density of 3000 cells/cm^2.
A phenotypic high-content drug screen was prepared to identify compounds capable of preventing the iFA phenotype in a 96-well format. An ImageXpress XL high-throughput imager with a 4× Plan objective (N/A 0.20) was used with image based focusing. Briefly, 100 μL media were plated in each well of 96 well plate using a Thermo Multidrop non-contact dispenser. Using a custom V&P pin tool mounted to a Beckman FX liquid handler, 1.5 μL compounds or DMSO were added. Mesenchymal-like cells were added as a suspension using the Multidrop at a density of 3.5×10^3 cells/well. The resulting compound concentration was 10 μM. Cells were imaged after 7 days of incubation at 37° C. and 5% CO2: A final of 0.5 μg/ml of Calcein AM and/or 10 μg/ml propidium iodide (viability dye) with 1 μg/ml Hoechst 33342 were added and imaged using the ImageXpress XL system. Data mining was performed using a custom module consisting of the following steps: The image background was removed using a top-hat filter with 25 μm round shape polisher. Next, cellular aggregates and individual spindle-shaped cells were identified. Aggregates of cells were defined by size with a cut-off of 60 to 200 micron and an intensity of at least 200 gray scales over background. Individual spindle-shaped cells were identified as smaller objects with cut-offs from 15 to 100 micron and a lower intensity of at least 70 gray scales over background.
Additional morphometric measurements were made by counting labeled cell nuclei and measuring total area covered with cells per well. The data resulting from the screen were batch exported through MetaXpress and uploaded into a Collaborative Drug Discovery (CDD) cloud based database (Ekins and Bunin, 2013, Methods in molecular biology 993, 139-154.). Hits were selected on a cut-off of more than 3 standard deviations from mean using data normalized to reference wells in each plate. IC50 values (the half maximal inhibitory concentration) from confirmation experiments were calculated from dose-response signal curves using the Prism software (GraphPad Software).
Signal-to-background (S/B) ratio, standard variation and variation coefficients were calculated as the signal of DMSO treated wells divided by the signal of the hit compound (AA5) treated wells. […]

Another experiment has as its system iFA model. As to the kind of experiment: Fibrotic marker, cytokine and repair modulator expression in the iFA model (qPCR, immunoblotting, luminex, immunofluorescence). As to conditions: 3.75 μgm/ml IFNγ vs DMSO-treated controls. The method, then: The Milliplex human cytokine/chemokine Panel IV, human TIMP Panel 2, and human TGFβ 1,2,3 magnetic bead kits (EMD Millipore) were used per manufacturer's instructions. Prior to plating, all samples tested for human TGFβ only were activated and neutralized with 1.0 N HCl and 1.0 N NaOH, respectively. Briefly, 25 μl of undiluted or treated cell culture supernatant samples were mixed with 25 μl of magnetic beads and allowed to incubate overnight at 4° C. while shaking. After washing the plates with wash buffer in a Biotek ELx405 washer, 25 μl of biotinylated detection antibody was added and incubated for 1 hour at room temperature while shaking. 25 μl of streptavidin-phycoerythrin conjugate was then added to the reaction mixture and incubated for another 30 minutes at room temperature while shaking. Following additional washes, beads were resuspended in sheath fluid, and fluorescence was quantified using a Luminex 200 instrument. Similarly, a custom magnetic Luminex assay kit of select analytes (R&D Systems) was used per manufacturer's instructions. Cell culture supernatants were prepared with a 2-fold dilution. 50 μl of diluted sample were added to 50 μl of provided micro-particle cocktail and incubated for 2 hours at room temperature while shaking. After washing with wash buffer, 50 μl of biotin antibody cocktail was added and incubated for 1 hour at room temperature while shaking. Following additional washes, 50 μl of diluted Streptavidin-PE was then added for incubation for 30 minutes at room temperature while shaking. The plate was then washed again and the micro-particles resuspended in 100 μl wash buffer. After an additional 2-minute incubation while shaking, the data was acquired using a Luminex 200 instrument.
In-vitro cultures of PF and cells in the iFA model were washed once with PBS and total RNA from the samples were extracted using the RNeasy Mini Kit (Qiagen) according to the manufacturer's instructions. For the lung slice cultures (LSC), tissues were snap-frozen after treatment and stored at −80° C. until RNA isolation. Lung slices were homogenized using a handheld homogenizer and passing the homogenate through a Qiashredder (Qiagen). Total RNA from the LSC and cells from the disease model were extracted using the RNeasy Mini Kit (Qiagen) according to the manufacturer's instructions. The RNA concentrations were measured on a NanoDrop ND-1000 spectrophotometer. Single-stranded cDNA was synthesized from 200 ng of total RNA using Superscript IV and random hexamer primers (Invitrogen) in a volume of 20 μl. cDNA was then used for qRT-PCR analysis. PCR reactions were performed using Taqman Gene Expression Assay mix (Applied Biosystems) according to the manufacturer's instructions.
qRT-PCR reactions were performed using the StepOnePlus (Applied Biosystems). Relative gene expression was calculated using the 2^−ΔΔCt method, with 18S Cat. #4331182 (Invitrogen) as housekeeping gene. For the RT^2qPCR arrays, cDNA from DMSO and AA5 treated iFA and was added to the RT^2 qPCR iTaq Universal SYBR green Master Mix (Biorad). 20 μl of the experimental cocktail was added to each well of the Fibrosis PCR (Qiagen). Real-Time PCR was performed on the StepOnePlus qPCR system (Applied Biosystems) using SYBR green detection according to the manufacturer's recommendations. All data from the PCR was collected and analyzed by SA Bioscience's PCR Array Data Analysis Web Portal.
Cells grown on coverslips were fixed in 4% paraformaldehyde (PFA) for 10 min at room temperature and washed three times with TBS buffer supplemented with 0.1% Tween 20 (TBST). Lung samples were fixed overnight in 4% PFA at room temperature, washed 3 times in PBS, dehydrated and then infiltrated and embedded with wax. Five-micron sections were collected on glass slides, deparaffinized and rehydrated. Heat-induced epitope retrieval was performed using 1 mM EDTA in a microwave. […]
A general note: In qPCR the cycle at which signal appears reflects the starting amount.

Turning to `CNC(C)Cc1cccs1` (stereo not shown) [Methiopropamine], in experiment [1], the Reversal of fibrosis entry is reported as “Yes”. In addition, in experiment [2], the Dose response result is given as “+++ (+++ = strong effect)”, the “Efficacy in secondary screen” value is reported as “+++ (+++ = strong effect)” and the “Efficacy in primary screen” value is recorded as “+++ (+++ = strong effect)”.

B1: Recombinant Human IFN-gamma Protein: Recombinant Human IFN-gamma Protein; IFNs are known anti-fibrotic cytokines (protein, UniProt P01579 24-161, looked up)
Interferon gamma: QDPYVKEAENLKKYFNAGHSDVADNGTLFLGILKNWKEESDRKIMQSQIVSFYFKLFKNFKDDQSIQKSVETIKEDMNVKFFNSNKKKRDDFEKLTNYSVTDLNVQRKAIHELIQVMAELSPAAKTGKRKRSQMLFRG
As to B1, in experiment [2], the “Prevention/rescue of the iFA phenotype” value is “Partial prevention of the iFA phenotype”, the Dose response result is “+”, the “Efficacy in secondary screen” value is “++ (++ = moderate effect)” and the “Efficacy in primary screen” value is given as “+++ (+++ = strong effect)”. In addition, in experiment [2] (listed as recombinant IFNγ), the “Prevention/rescue of the iFA phenotype” value is on record as “partially rescued the iFA phenotype”. Also, the “α-SMA and Collagen I (IF)” value in the experiment with iFA model is “reduced”.
